{"source": "the NTF2 design screens of Basanta et al. (2020)", "data": [{"assay": "protease stability score; higher = more stable; yeast display proteolysis, trypsin and chymotrypsin;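 also: log10 excess protease needed over predicted unfolded state with 0 meaning unfolded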", "values": [{"sequence": "DKEILDLVNEFLKAQRDNDPDRVSELADPNVKVHYGDKQIRGREEVNKQVEKEQKEIQVDFRIKHVTVENGRADLNFRYHANVNGQPISFDARIEMQFHNGRLKRLVLRMPEEAVKTMDS", "protease stability score": 0.118}, {"sequence": "DKEKEADQQVRTADEIYQTGNPEEAKKLADPNVDVRIGDKEYHGDRELAQIIVEKRERVDSLVFHVERINVHPGRFQLNVVLTLKHNGKHETKKEEFVMTKRNGQLRVVHMRDQ", "protease stability score": 0.056}, {"sequence": "DKEKEAKKAIDKMITAIQHNDEDRAREMADPNVRIKYGDKQYHGRETMEDWIRTLRNSYDHLDIKLTDMKTDGDKIHIIIQYEADHNGQRTRDRVDLTMRRDNGRVKLVSAKEQ", "protease stability score": 0.232}, {"sequence": "DKELQDTAHKLAKNGDFSRLAELADEDVQIKIGDERVTGREEQKKLVEVQQRRIDHVEVDRVHAQGNKVSVNMTIVVDGESRTVNIDITMHNGRVKEIVYNATSEEARKEMTKWYR", "protease stability score": -0.362}, {"sequence": "DKELRHSWEDQLRAEEEGDENRLRELIDPNASFVVGDKSIHGREQFADDMRRKLTEMRVEIKSYSVHAHNGHLDIKVHRRVNHDGEPKEDTYRADVQADNGRIVRVTIQSDG", "protease stability score": -0.652}, {"sequence": "DKELRKHLTEFVKNYQHGNERELNKYADPNVKFRYGDKTLNGREEWMKHIQRLKKEIRFEIDDFRIRARNGELDMTFDFKQEVNGRPKSDRAQMNVVMHNGKIVEIDFRVDPTFEKEVKG", "protease stability score": 0.376}, {"sequence": "DKELWEWFRRWLENYRTGNHNNIREMADPNVRMVVGDKHISGREHYAEEVSRQVHKLRVSLDFKDYDLRPNRVNVDAVIRMTSDGEPDQSKWSQTLQFSNGRLHQANVTMNQ", "protease stability score": 0.192}, {"sequence": "DKEMASVVERWLDALQRNDPDQANNNADKDATFDVGDKKVKGRDTLKKLVEDLRREMRFNITSMSITVHGDKVVVTYRVSMQHDGQPMQHRYFLHAQDKNGHIHNLHVQKSD", "protease stability score": 0.44}, {"sequence": "DKENLETLHELMTALERGDEQKVADEIDPNAKLQYGDKEIHGRKQAHRFIKTVKDQQRFHIQVKDLKVKGDTMDLRAEVEFQHNGHPDSDVIVVNARAHNGHISTLTVTKDD", "protease stability score": -0.223}, {"sequence": "DKEVEEVWKKMLTAQKYGDEKRYKDLADPNVKYNIGDKKIDGRDTYAEEMKKRRDEIRLRMQITDVKQQGDKLHVRFKIEAEINGKPISEDVTAVLVNHNGKVKHYSMHVPHEFFKKQQK", "protease stability score": 0.213}, {"sequence": "DKEVIKQLKHFMKALEKGDPDKLVELADPEAKYEYGDRTYKGMSNVAEELVNTRREIRFQLTLQSYEVQGEKARVKAVYVKDRNGKPDNQVVVIEMEAHNGKIKSMQERSDQ", "protease stability score": 0.501}, {"sequence": "DKEVNNMAEKFLDAFRTNDPDQVRRLADENASFRVGDKVLTGMTEAVRELHRQVKQMEVRITDVKNSVQGDQANLDIHFDVHDNGKPDTRRMVLVVNVENGRIREVEVNQDD", "protease stability score": 0.4}, {"sequence": "DKHAAQVVLEIMHAVDTGNENEVMKLIDPNARVEYGDKSITGREDIARHLIHDAKHINRRWSLKDIDVQGEKVFIKFEYKTNKNGRPDKADVNLEAKAHNGTVTTMRLQETR", "protease stability score": 0.368}, {"sequence": "DKHLEDLARTLVHALRTGDPQMINHLFDENARVEVGNRRVHGREDANQRMKEINSQARMHVRLTSLRVDENRADLTVDASARVNGQPNTLRYQFWFHQHNGRITSMSARMSEHDVKQFES", "protease stability score": -0.278}, {"sequence": "DKHQMHILKSIVENEQKGDEKSVSKMVDPNARFHVGDKRISGREQKDEDVQRKKDEIRVQIDKVEFNHSNGRVVVNMDMTIDRNGKPKTFKAQAHATFHNGTATSQTQTNDG", "protease stability score": -0.614}, {"sequence": "DKHRVEHAKRILEIWTNGDEKSVKDLFDPNVRVDVGDKRITGREQLAREWKRRRDEMEWSLTVHEYKDDPNRVDINVHFNRNKNGRPRTQQQHLRIDMDNGSVRQLRIEDSK", "protease stability score": 0.216}, {"sequence": "DKKANSMAHDLIRNRNSNNPERLKEMMDPNVEIVIGDKTVNGTHEYERQQRQRDRQIQIDVKSVTFKDRPNHAQVRFDAVFHHNGQPDRRVQEVIIRQRNGKVKHIHVQDTE", "protease stability score": -0.365}, {"sequence": "DKKDVDRVIKLLEQGDWESLVEMMDENARLQVGNKNYHGRTQVRHAATRLQDRIDHVKIDQVDVHNGRVDARFKANINGKTMDVQVRINVDNGHIKYVRVTVRSEELRHELDRLLS", "protease stability score": 0.961}, {"sequence": "DKKEHQEAAETFDRALKRGDPDTAMSLFDKDARANVGDKTYQGSEKLSEAMHRLSEEADRFHVRDVHFTNGEVSVNMYLNVNGKRVQVDVHIELSNGRAKEVTFNPDQLNEMQN", "protease stability score": -0.119}, {"sequence": "DKKLNKQMEEWVQAVNTGDSEQLEDLVDPNVRLEVGDKQFHGREEVRRQQTKKIEEIRLHLDLKDVKAENGHAQLDVNVEFEHNGQPNSNRRTLNAVVHNGKIKHLSDKTDP", "protease stability score": -0.347}, {"sequence": "DKKLSRQFREFWRAMEDGDPDKLRENADPNVKYVVGDKTIHGRETYVKEAQDRRREMRVELDTMSINDKGERITVEYVQVNEHNGRPKQAVYRQVILFKNGRIKEVRQTKTD", "protease stability score": -0.073}, {"sequence": "DKKQVHDVARTLVQYYVSGNSERVKQLGKEDVELHAGDRTYHGVDQMAKVVEQFKKYGVELEVKDVKVDGNRVTARVQFHKAGTTWEFKVDVQADGGKVDQVRVNVTEEAIKHIQHG", "protease stability score": 0.797}, {"sequence": "DKNNLKRYDKLLKILQTGDEHKAKKLADPNVKVKVGDKEIKGWDRFVHESAKRWREARIELKIKHVDVSGDKVTIDYEAEVEVNGKPIRYTATFRFVVHNGRIKTINFSMDENQRETVKR", "protease stability score": 0.007}, {"sequence": "DKQDLDKLRELWEDELNGDHRSLREQVDPNAKVEIGDKEIHGRDDFAKDAKRRKEEIRVEMRVKSLSASGDTIDAKVHLDFKVNGKPIRLTVHMHVKVENGKFVDLNVRIDERQVRKIRK", "protease stability score": 0.089}, {"sequence": "DKREQSEIAKEVLRMLLTGDPDQNHKLADKDVQFSVGDRTITGREDLDRWLREMHHHIDTQEVKSLDVNGEDVVIDVVATFNGVHMRFVIRVEVHNGRIVNMRMEVTSEETLKRVDG", "protease stability score": -0.092}, {"sequence": "DKSANHQIEQLMRNINEGDKDKVREQMDPNVEVHVGDKEVHGREQYAREVRKEQEEMRVQFKVEHVKDRNGQAELRIQVQLDHNGKPETRVQHFVAVLDNGRVKSATAKIDK", "protease stability score": -0.084}, {"sequence": "DKSAQDLFRKLLEALDTGDEKTAEENMDPNAHARVGDKEVHGMDEYAKHRATENRRMKIRWNSVNLRVHNGQLNVDVDVEVTENGRPSRSRARVVMRMKNGRIKRLEVNEHK", "protease stability score": -0.118}, {"sequence": "DKSMQEEMERVARENDFHRLAELADPNVKWQYGDKHLHGRTAQREFVRLNHEAVDHLEVQDVKFHGENVEIDLVMTVNGKEIKVVLQAHVHNGRIKEMRWQVTNEDEKRKLEEAVS", "protease stability score": -0.183}, {"sequence": "DKTAAHVVHQFLRNVDTGDPKKASDNADPNVTINVGDKEIRGRENLQKEIDKQKKDWRQTVRVTSFKDHNGKVHVDARYTADVNGKPIDDTFQFEMQAHNGKLKYVNVQLDEDKKKEQDS", "protease stability score": 0.032}, {"sequence": "DKTHAETVRKLVERGNWEELARMADKDAHVNYGNKSVHGRERVESLLKRFSSRVDHVDLKDVDVQGDHVHMRYVAVFDGRRVDVSAVIFVDNGRIKSIHYRATDEEVKRRMDELLD", "protease stability score": 1.33}, {"sequence": "DNDAMRQANTLVEILNTGDPDRFVEYVDPNVDIKIGDKSIHGREDARRWVTELKRQMHIHLSVKRVDVEGEHLNLHADQVNDENGQPDKDHVLIIMRFHNGRVKVLKQEHKS", "protease stability score": 0.53}, {"sequence": "DNDAREAARRLLDAWRTGDEDTVRDMADENAKVTVGDKTIQGRDHLVDWIHQHYHEQRVDVKSVHMDAQGDKVDVKLDAVSDRNGQPRRYVEHVKITMKNGKMKSLEMHREG", "protease stability score": 0.753}, {"sequence": "DNDHWRKIATDMIKALQEGDRQKVKKLVDKDAKARIGDRDVHGREHIVTLLYEMQQRIDHMQLVDVKVRGEEVVVRYHAKFNGKVVDVSITLHFRNGKVKEMRVDPRAVESLKK", "protease stability score": 1.22}, {"sequence": "DNDKLAKDAVDTMDEVLQDGDEKKLNDLFDPNARLRVGDHEIHGREQIHDWIKTRLNQIDHIEMRIVHVRREGEKALARVTFVNQHNGKQDEREAVYRFTVENGRATFEEVNIK", "protease stability score": -0.116}, {"sequence": "DNDRVRKAHKLMRVIETGDPDKVNEYVDPNVHVEYGDKTIHGREELKKFIEKERHEMRVELKRVSADATGNKVDIKVHRVLDKNGKPETNNVRIIIVWDGNKIKSVSFQKDK", "protease stability score": 0.849}, {"sequence": "DNDTQHRLAERFNHAVETGDPDKIMKLVPEDVRFTVGDKEYHGRESLSKVIKDFRDHADRVKVESVRVNNGRIDVQMRYNRNGQDRVMTFLLTVHNGKIENVNIQSG", "protease stability score": 1.58}, {"sequence": "DNEAARSARRNLKQIERGNEHKVREMADKNAHVRVGDKDLHGREDISTWVKKLKEEMRVRFDLRRVNDKGSTVDLDVTLEMTVNGKPVTMKVTAKLSIHNGKIQSLIWNISDEQKEQRKG", "protease stability score": 0.336}, {"sequence": "DNEDAKRVVKLAEHNDFKKWAENADKDVRMKVGDKTWHGRSQFSTAVERLQKNIDHVDLRSVKTHNGRVTIKEQQEVDGRKTDVRFRLQVHNGHIKRVEVQVTDEEDKKTMEKLLS", "protease stability score": -0.23}, {"sequence": "DNEDAQQAIQMLKAELDGDEERAAQLMDPNARFNIGDKEIHGRETFQHWLREVKKHMHVKIDRLEIDVEGDKVDVRMEFVQNHNGKPHRAEATVEVRAENGHVKEVTVDVKG", "protease stability score": 0.551}, {"sequence": "DNEEEAKKFVEELKRQYDEGNEHQIANQAPENATARVGDKNYHGRENVETYLRQIVRRADTVEIRIRSVEVHGDNVVVDFHYVLEYNGTRRNVRMKLVLDDVNGRKVALVIVQS", "protease stability score": 0.572}, {"sequence": "DNEEHKVLEELIRAIQEGNEKDIKRLIDPNARVNVGDKTYHGREQIVKWWFDLQQELEFEIDIKRWHVNNGQIRADIKYVRNNNGKPESFRADMQVTASNGKFKSVSVHETK", "protease stability score": 1.43}, {"sequence": "DNEFREEVKKAIDTGDPLEMVRQADKDVEVHVGDKYWHGREQVEKLMTLWKEQVDHLHVDRITHEPGRVKVDAVAQFNGVEFRFNMVIHAHNGKIKSVQFKNTDEDVKKKLEKILD", "protease stability score": -0.288}, {"sequence": "DNEKALERAEEAARAVARGNEDELRKLAPPDVSAQYGDHRINGMDQVVEQIKEMRRAVDHIKIQTIRKNGNSVTLTVELTYNGQQMHMHVEVEVHNGELKHVRMHVTDEERWRRQES", "protease stability score": 0.855}, {"sequence": "DNEKVARNAADKLMTAINTGDPDQFVKLFDENAHVDVGDKTWRGRDKLKEWARKIVEQVDHLRARVTHMDVDGDKASVVFVVTLNKNGKEHSEQHEATAEVSGEQAVFKSLRHK", "protease stability score": 1.38}, {"sequence": "DNENVNHVKTWFQNIQENNPDELIKLIDKDARLRVGDKEFHGREQAKKEIEKRIRHIELEFKHVQVDHHNGRVVAHAVYTQNRNGRPKKVNVRYVFQIHNGKIKRAEQDEDG", "protease stability score": 0.263}, {"sequence": "DNETVDEALKAFNKNDERNMMRLADENAEMEIGDTEYHGQEQVQTLLQKLNQQVDHREFHSIETEPNRIRVDYRAVFNGRDIRVHVHLEFENGRLTRVRFDVRDPRQQKHLQDLLK", "protease stability score": 0.344}, {"sequence": "DNEVAHNIMRAFKQQWRGNEDKALELMDPNAEVHVGNKQIHGMEEWVRRTAHKARRARVKVSRIDVTVHNGKVRIKMNYTVSVNGKPISWHADITVQADNGRAKHITQQVPEDLEERERG", "protease stability score": 0.112}, {"sequence": "DNKDQARRLLNELRKAMKQNDEDRMRQLMDPNARATYGDKTVHGREELAERIIKEVKRADHVDLQVDDIKTQGNKLTVEVTIRIDVNGKTINTRYVLYAEVSNGRFNIRQIHQQ", "protease stability score": 0.544}, {"sequence": "DNKERAEDWFRHMTEIWKQNDPDELQNNADPNVRVDVGDKQVQGRDKYKTQMETFKNRADHISIELKNIDVQGERIVVNFEATYDVNGRKEDKTAHILARVHNGHIVIKEVKNG", "protease stability score": -0.073}, {"sequence": "DNQDARKLQEYFRNMVTGNEQRAMQYMDKDVTVHVGDKVFHGMERAVKTLVQRLKEIRVHYKFKQVSVQGNKVNIKADVEEDDNGRPETKRLEMDVEWHNGKVKKVVIKNDR", "protease stability score": 1.49}]}]}
